# How the values were obtained:
# [1] = biological target: Trigger Factor (UniProt P0A850); assay: high-speed atomic force microscopy
# [2] = biological target: ribosome-nascent chain complex (RNC) stalled on mTFP1-KCNQ helices A, TW, B-SecM arrest peptide (UniProt P0ADZ0); assay: high-speed atomic force microscopy
substance,measurement,setting,value
Trigger Factor (from UniProt P0A850 1-432) (natural protein),stoichiometry N,[1],2
same,duration of binding,[2],> 30 s
same,"duration of binding (second interaction, near bL17)",[2],< 15 s
same,dwell time constant τ (first TF binding event),[2],8 s
same,dwell time constant τ (first TF molecule),[2],8.3 s
same,"dwell time constant τ (second TF molecule, near bL17)",[2],3.9 s
same,stoichiometry N,[2],2

# From doi:10.1101/2025.05.16.654432
